From patent US20240034813A1 (Janssen / Centocor, published 2024) come the findings set out here.

The target of assay [1] is T1, recombinant human EGFR/ErbB1/HER1 with C-terminal His tag, Cy5-labeled (human, UniProt P00533 25-645, Cy5 label (reacted with Cy5 Mono NHS Ester; sites not stated)).
T1 construct: Commercial protein; also called Cy5-EGFR; Cy5-labeled EGFR antigen; not shown: C-terminal His tag
Kind of assay: competitive TR-FRET (Eu-amivantamab/Cy5-EGFR), EC50 ratio vs Reference Material; Ex. 11 drug product, 5 months at 5 C. An excerpt: (§1) In this procedure, varying concentrations of unlabeled bispecific EGFR-cMet antibody sample compete with donor fluorophore (Europium (Eu) chelate) labeled bispecific EGFR-cMet antibody for binding to an acceptor fluorophore (Cy5)-labeled EGFR antigen. Excitation of the donor fluorophore results in a transfer of energy to the bound acceptor fluorophore (FRET process). The resultant FRET is detected by emission of light at 665 nm using a microplate reader capable of measuring time-resolved fluorescence. Sample dose response curves are compared to the RM.
(§2) EGFR Binding Materials and Methods. Certified commercial EGFR, a recombinant human EGFR/ErbB1/HER1 with C-terminal His tag is reacted with certified commercial Cy5 Mono NHS Ester to produce Cy5-labeled EGFR. Validated bispecific EGFR-cMet antibody is reacted with certified commercial Europium (Eu) chelate to produce Eu-labeled bispecific EGFR-cMet antibody. […] Fluorescence is then measured by spectrophotometry at 665 nm, plotted against antibody concentration and analyzed by a four-parameter logistic model. The antibody concentration required to obtain half of the maximum fluorescence response (EC50) is determined for RM, assay control and samples. The potencies of assay control and samples are calculated based on the ratio of the sample (or control) and RM EC50 values and reported as a percentage activity relative to the RM.
(Time-resolved FRET reads energy transfer from a long-lived donor to a nearby acceptor.)

The target in assay [2] is T1, recombinant human EGFR/ErbB1/HER1 with …. Put plainly: competitive TR-FRET (Eu-amivantamab/Cy5-EGFR), EC50 ratio vs Reference Material; Ex. 11 drug product, 3 months at 40 C.
Source text: as §1, §2

The target is the same in assay [3]. Put plainly: competitive TR-FRET (Eu-amivantamab/Cy5-EGFR), EC50 ratio vs Reference Material; Ex. 3 acetate formulation with PS80, T0.
Source text: as §1, §2

Assay [4] addresses T2, recombinant cMet/HGFR with c-terminal His-tag, Cy5-labeled (UniProt P08581 25-932, limits assumed, Cy5 label (reacted with Cy5 Mono NHS Ester; sites not stated)).
T2 construct: Commercial protein; also called Cy5-c-MET; Cy5-labeled c-MET antigen; not shown: C-terminal His-tag
Kind of assay: competitive TR-FRET (Eu-amivantamab/Cy5-c-MET), EC50 ratio vs Reference Material; Ex. 2 Formulation 3 (acetate), 1 month at 40 C.
Source text: (§3) In this procedure, varying concentrations of unlabeled bispecific EGFR-cMet antibody sample compete with donor fluorophore (Europium (Eu) chelate) labeled bispecific EGFR-cMet antibody for binding to an acceptor fluorophore (Cy5)-labeled c-MET antigen. Excitation of the donor fluorophore results in a transfer of energy to the bound acceptor fluorophore (FRET process). The resultant FRET is detected by emission of light at 665 nm using a microplate reader capable of measuring time-resolved fluorescence. Sample dose response curves are compared to the Reference Material (RM).
as §2, with “c-MET Binding” for “EGFR Binding”, “commercial cMet,” for “commercial EGFR,”, “recombinant cMet/HGFR” for “recombinant human EGFR/ErbB1/HER1”, “with c-terminal His-tag” for “with C-terminal His tag”, “Cy5-labeled c-MET.” for “Cy5-labeled EGFR.”, “produce Eu labeled” for “produce Eu-labeled”

For assay [5], the target named is T2, recombinant cMet/HGFR with c-terminal …. Kind of assay: competitive TR-FRET (Eu-amivantamab/Cy5-c-MET), EC50 ratio vs Reference Material; Ex. 12 drug product with rHuPH20, 3 months at 5 C.
Source text: as §3
as §2, with “c-MET Binding” for “EGFR Binding”, “commercial cMet,” for “commercial EGFR,”, “recombinant cMet/HGFR” for “recombinant human EGFR/ErbB1/HER1”, “with c-terminal His-tag” for “with C-terminal His tag”, “Cy5-labeled c-MET.” for “Cy5-labeled EGFR.”, “produce Eu labeled” for “produce Eu-labeled”

Assay [6] concerns the target T1, recombinant human EGFR/ErbB1/HER1 with …. Kind of assay: competitive TR-FRET (Eu-amivantamab/Cy5-EGFR), EC50 ratio vs Reference Material; Ex. 2 Formulation 1 (10 mM histidine), 1 month at 40 C.
Source text: as §1, §2

For assay [7], the target named is T2, recombinant cMet/HGFR with c-terminal …. Kind of assay: competitive TR-FRET (Eu-amivantamab/Cy5-c-MET), EC50 ratio vs Reference Material; Ex. 2 Formulation 2 (50 mM histidine), 3 months at 5 C.
Source text: as §3
as §2, with “c-MET Binding” for “EGFR Binding”, “commercial cMet,” for “commercial EGFR,”, “recombinant cMet/HGFR” for “recombinant human EGFR/ErbB1/HER1”, “with c-terminal His-tag” for “with C-terminal His tag”, “Cy5-labeled c-MET.” for “Cy5-labeled EGFR.”, “produce Eu labeled” for “produce Eu-labeled”

Assay [8] shares this target. Kind of assay: competitive TR-FRET (Eu-amivantamab/Cy5-c-MET), EC50 ratio vs Reference Material; Ex. 3 acetate formulation, 6 months at 25 C, untreated control.
Source text: as §3
as §2, with “c-MET Binding” for “EGFR Binding”, “commercial cMet,” for “commercial EGFR,”, “recombinant cMet/HGFR” for “recombinant human EGFR/ErbB1/HER1”, “with c-terminal His-tag” for “with C-terminal His tag”, “Cy5-labeled c-MET.” for “Cy5-labeled EGFR.”, “produce Eu labeled” for “produce Eu-labeled”

B1: amivantamab (bispecific antibody, human IgG1, kappa)
heavy 1: not shown
light 1: not shown
heavy 2: not shown
light 2: DIQMTQSPSSVSASVGDRVTITCRASQGISNWLAWFQHKPGKAPKLLIYAASSLLSGVPSRFSGSGSGTDFTLTISSLQPEDFATYYCQQANSFPITFGQGTRLEIKRTVAAPSVFIFPPSDEQLKSGTASVVCLLNNFYPREAKVQWKVDNALQSGNSQESVTEQDSKDSTYSLSSTLTLSKADYEKHKVYACEVTHQGLSSPVTKSFNRGEC
notes: The samples tested were high concentration (160 mg/mL) formulations, fresh or stored or stressed; also called JNJ-61186372; bispecific EGFR-cMet antibody
B1: the figures for the “EGFR Binding activity relative to Reference Material (%)” value in assay [1] and in assay [2] were 85% and 8%, respectively. Besides, the “EGFR Binding % activity relative to RM” value in assay [3] stood at 103%; in assay [6], 69%. The “cMET Binding % activity relative to RM” value in assay [4] stood at 100%; in assay [7] it was 98%; in assay [8], 99%. Further, the “cMET Binding activity relative to Reference Material (%)” value in assay [5] was determined as 97%.
